Experiment [1] has as its target recombinant His-tagged B. malayi fructose-bisphosphate aldolase (B. malayi). Put plainly: far-Western, overlay or dot blot; His-Bm-aldolase (3 µg per lane) run on SDS-PAGE and blotted on nitrocellulose; strips incubated with 1, 2, 5 or 10 µg/ml His-wBm0432 in overlay buffer, 3 h, room temperature; signals quantified with GeneSnap.
The target of experiment [2] is recombinant His-tagged Wolbachia surface protein wBm0152 (Wolbachia endosymbiont of B. malayi (wBm)). As to the kind of experiment: ELISA. A general note: In an ELISA, binding on a coated surface is turned into a signal by an enzyme label.

As a reminder, the Kd is the equilibrium constant for the complex coming apart. For the substance “recombinant His-tagged Wolbachia surface protein wBm0432 (natural protein)”, in experiment [1], the Kd came to 510 nM.

“purified bovine actin (from UniProt P68138 1-377) (natural protein)”: in experiment [2], the Kd came out at 570 nM.

Source of the values: paper PMC3617236.
